Source: publication PMC8402870
Like-named read-outs stand apart in the source and are kept apart here.

What was measured:
[1] = target: Pf4r, repressor C protein of the Pf4 filamentous phage (wild type) (Pf4 filamentous phage (prophage of Pseudomonas aeruginosa PAO1)); assay: SEC-MALS; Superdex 75 5/150 equilibrated with PBS; samples prepared in 20 mM HEPES pH 7.5, 300 mM NaCl, 10% glycerol, 2 mM TCEP; 50 uL loaded at 20 mg/mL; monomer to dimer
[2] = target: Pf6r, repressor of the Pf6 filamentous phage (wild type) (Pf6 filamentous phage (prophage of Pseudomonas aeruginosa PAO1)); assay: as above
[3] = tested on: T1, Pf4r (repressor C) (Pseudomonas aeruginosa PAO1 (Pf4 filamentous prophage)), ORF:4ff4b857; assay: EMSA
T1 sequence: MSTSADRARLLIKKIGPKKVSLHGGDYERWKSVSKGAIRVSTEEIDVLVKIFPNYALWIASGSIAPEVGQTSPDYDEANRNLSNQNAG

| Substance | binding [3] | further results |
| --- | --- | --- |
| Pf4r, repressor C protein of the Pf4 filamentous phage (wild type) (natural protein) |  | stoichiometry N [1]: 2 |
| Pf6r, repressor of the Pf6 filamentous phage (wild type) (natural protein) |  | stoichiometry N [2]: 2 |
| TTTTGGGGCCGATTTTCTTGATTAATAGTCTTGCTCTATCGGCTGACGTGCTCATATAGAAATTTATTCCGGGGAAATAGTTGCCCTGACGTGGCTTTGGGGAAATAATTTCTCCAGGGTAATTATTTCTCTA (double strand) [Ppf4r] |  | binding ([3]; EMSA: 10 mM Tris, 1 mM DTT, 2.5% glycerol, 5 ug/uL BSA, 0.05% NP-40, 80 mM KCl, 5 mM MgCl2, 2 mM EDTA, 10 fmol probe, 30 min, 30 C (protein diluted in TE pH …)): binds |
| TTTTGGGGCCGATTTTCTTGATTAATAGTCTTGCTCTATCGGCTGACGTGCTCATATAGAAATTTATTCCGGGGAAATAGTTGCCCTGACGTGGCTTTGGGGAGATAATTTCTCCAGGGTAATTATTTCTCTA (double strand) [Ppf4r-A>G] | no binding |  |
| TTTTGGGGCCGATTTTCTTGATTAATAGTCTTGCTCTATCGGCTGACGTGCTCATATAGAAATTTATTCCGGTGAAATAGTTGCCCTGACGTGGCTTTGGGGAAATAATTTCTCCAGGGTAATTATTTCTCTA (double strand) [Ppf4r-G>T] | binds more weakly |  |
| TTTTGGGGCCGATTTTCTTGATTAATAGTCTTGCTCTATCGGCTGACGTGCTCATATAGAAATTTATTCCGGTGAAATAGTTGCCCTGACGTGGCTTTGGGGAGATAATTTCTCCAGGGTAATTATTTCTCTA (double strand) [Ppf4r-doubleSNP] | no binding |  |
